One assay addresses T1, huFc-NKG2A/CD94 (UniProt P26715 94-233; Q13241 32-179, limits assumed).
T1 construct: Construct known only by its name; the order of the pieces follows the name huFc-NKG2A; not shown: human Fc (huFc)
The experiment in a line: phage supernatant ELISA on huFc-NKG2A/CD94 against huFc-NKG2C/CD94 and huFc-NKG2E/CD94; criterion of selection met by MA-1.

The next assay deals with T2, huFc-NKG2C/CD94 (UniProt P26717 94-231; Q13241 32-179, limits assumed).
T2 construct: Construct known only by its name; not shown: human Fc (huFc)
The experiment in a line: ELISA, dilution series of MA-1 on huFc-NKG2C/CD94, anti-mouse Ig-HRP. A general note: An ELISA detects its analyte on a solid surface through an enzyme-linked reagent.

For another assay, the target named is T3, huFc-NKG2E/CD94 (UniProt Q07444 94-240; Q13241 32-179, limits assumed).
T3 construct: Construct known only by its name; not shown: human Fc (huFc)
The experiment in a line: ELISA, dilution series of MA-1 on huFc-NKG2E/CD94, anti-mouse Ig-HRP.

T2 sequence (P26717 94-231 limits assumed, chain 1 of 2): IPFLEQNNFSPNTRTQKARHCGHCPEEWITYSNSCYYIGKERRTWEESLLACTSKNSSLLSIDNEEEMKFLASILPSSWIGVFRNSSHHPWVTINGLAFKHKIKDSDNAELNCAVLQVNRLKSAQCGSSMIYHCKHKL
T2 sequence (Q13241 32-179 limits assumed, chain 2 of 2): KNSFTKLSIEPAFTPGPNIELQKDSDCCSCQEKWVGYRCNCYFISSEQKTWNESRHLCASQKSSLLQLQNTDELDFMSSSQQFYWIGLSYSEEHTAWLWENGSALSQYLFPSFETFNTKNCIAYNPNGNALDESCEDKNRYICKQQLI
T1 sequence (P26715 94-233 limits assumed, chain 1 of 2): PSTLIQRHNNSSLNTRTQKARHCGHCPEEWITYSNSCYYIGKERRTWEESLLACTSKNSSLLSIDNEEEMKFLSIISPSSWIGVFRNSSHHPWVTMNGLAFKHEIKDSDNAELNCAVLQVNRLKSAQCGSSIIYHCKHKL
T1 sequence (Q13241 32-179 limits assumed, chain 2 of 2): as the sequence (Q13241 32-179 limits assumed, chain 2 of 2) above
T3 sequence (Q07444 94-240 limits assumed, chain 1 of 2): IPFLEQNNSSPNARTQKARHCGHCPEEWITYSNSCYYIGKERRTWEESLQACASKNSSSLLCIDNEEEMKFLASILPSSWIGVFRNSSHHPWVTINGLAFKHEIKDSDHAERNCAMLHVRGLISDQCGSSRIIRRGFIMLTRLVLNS
T3 sequence (Q13241 32-179 limits assumed, chain 2 of 2): as the sequence (Q13241 32-179 limits assumed, chain 2 of 2) above

B1: MA-1 噬菌体单克隆抗体 (phage-displayed single-chain antibody MA-1) (scFv)
chain: EVKLEESGGGLVKPGGSLKLSCAASGFAFSDYDMSWVRQTPEKRLEWVATISSGGSYTYYPDSVKGRFTISRDNARNTLYLQMSSLRSEDTALYYCTSPRQVGLRKAFDYWGQGTTLTVSSDIVVTQSPALMSASPGEKVTMTCSASSSVSYMYWYQQKPRSSPKSWIYLTSNLASGVPARFSGSGSGTSYSLTISSMEAEDAATYYCQQWSSNPFTFGSGTKLEIKRAD
With B1, the “OD450nm ratio, NKG2A against NKG2C/E” value with huFc-NKG2A/CD94 was at least 3 fold.

B2: MA-1 鼠源全抗分子 (mouse IgG2a / mouse Ck full antibody) (antibody, V domains shown)
VH: EVKLEESGGGLVKPGGSLKLSCAASGFAFSDYDMSWVRQTPEKRLEWVATISSGGSYTYYPDSVKGRFTISRDNARNTLYLQMSSLRSEDTALYYCTSPRQVGLRKAFDYWGQGTTLTVSS
VL: DIVVTQSPALMSASPGEKVTMTCSASSSVSYMYWYQQKPRSSPKSWIYLTSNLASGVPARFSGSGSGTSYSLTISSMEAEDAATYYCQQWSSNPFTFGSGTKLEIKR
notes: plain joining would double 'AD' at the junction; also called MA-1鼠源抗体; 抗NKG2A单克隆抗体MA-1
Turning to B2, the binding result with huFc-NKG2C/CD94 and with huFc-NKG2E/CD94 was “no binding” in each case.

The values above are taken from CN115819587A (BEIJING DONGFANG BIOTECH CO LTD; BEIJING JINGYI TAIXIANG …, dated 2023).
